Measurements from PMC8910226.

Molecular target: F-actin (phalloidin-stabilized) (UniProt P68139)
Test: co-sedimentation; S1 fixed at 1.5 μM, phalloidin-stabilized F-actin 0-4 μM; rigor conditions (no nucleotide); 100 mM NaCl, 200 mM sodium phosphate pH 7, 5 mM MgCl2, 4 mM DTT; 15 min at 4 °C, 70,000 RPM 60 min 4 °C; SDS-PAGE densitometry of pellet, hyperbolic fit; Kd = F-actin concentration at half Bmax; N = 3

Kd [nM] | Substance
1100 | R369H myosin subfragment-1 (S1) motor domain, Drosophila indirect flight muscle myosin (domain or fragment)
1260 | control myosin subfragment-1 (S1) motor domain, Drosophila indirect flight muscle myosin (domain or fragment)
